From patent publication US20240043521A1 (ARXX THERAPEUTICS, published 2024)
Positions count from the first letter of the chain named.

T1: human FcγRIIa-H (the high-affinity H131 variant) on Jurkat reporter cells (human, UniProt P12318 34-317)
T1 sequence (looked up): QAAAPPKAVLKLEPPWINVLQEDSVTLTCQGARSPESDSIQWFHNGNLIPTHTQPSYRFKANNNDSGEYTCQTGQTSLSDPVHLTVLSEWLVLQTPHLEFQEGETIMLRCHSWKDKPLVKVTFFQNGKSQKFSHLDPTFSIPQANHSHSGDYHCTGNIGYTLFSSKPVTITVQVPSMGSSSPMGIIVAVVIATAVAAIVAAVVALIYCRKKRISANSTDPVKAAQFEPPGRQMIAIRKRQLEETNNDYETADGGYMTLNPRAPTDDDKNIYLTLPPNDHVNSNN

T2: A8 (lane under "Human S100 Proteins")
T2 construct: also called human S100A8
T2 chain: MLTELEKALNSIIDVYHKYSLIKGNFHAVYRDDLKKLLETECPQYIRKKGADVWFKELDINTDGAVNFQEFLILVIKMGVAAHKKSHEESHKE

B1: VH1_40Phe:VL3_Leu44 (antibody, V domains shown)
VH: QVQLQESGPGLVKPSQTLSLTCTVSGDSFTNDYYWNWIRQFPGKGLEWIGHIGYGGNINYNPSLKNRLSMSRDTSKNQFSLKLSSVTAADTAVYYCTRESFYDGYPFDYWGQGTLVTVSS
VL: DIQMTQSPSSLSASVGDRVTITCRASQDIRNYLNWYQQKPGKALKLLLYYTSRLHSGVPSRFSGSGSGTDYTLTISSLQPEDFATYYCQQGNSLPRTFGGGTKVEIK
notes: also called Phe40/Leu44; VH1_H40Phe VL3_L44Leu
B2: AX-202, a humanized IgG4 monoclonal anti-S100A4 antibody (antibody)
heavy: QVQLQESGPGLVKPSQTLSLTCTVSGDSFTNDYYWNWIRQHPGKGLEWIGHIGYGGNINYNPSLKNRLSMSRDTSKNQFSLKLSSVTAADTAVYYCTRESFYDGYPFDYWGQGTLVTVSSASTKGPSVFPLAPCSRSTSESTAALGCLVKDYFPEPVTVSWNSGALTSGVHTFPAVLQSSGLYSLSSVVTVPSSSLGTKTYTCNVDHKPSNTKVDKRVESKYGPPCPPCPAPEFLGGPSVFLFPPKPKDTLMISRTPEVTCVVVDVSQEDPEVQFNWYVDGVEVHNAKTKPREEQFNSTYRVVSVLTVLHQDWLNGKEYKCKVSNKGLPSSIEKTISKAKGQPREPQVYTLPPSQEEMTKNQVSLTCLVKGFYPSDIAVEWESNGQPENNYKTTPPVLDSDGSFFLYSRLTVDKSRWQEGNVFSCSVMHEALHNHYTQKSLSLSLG
light: DIQMTQSPSSLSASVGDRVTITCRASQDIRNYLNWYQQKPGKALKLLLYYTSRLHSGVPSRFSGSGSGTDYTLTISSLQPEDFATYYCQQGNSLPRTFGGGTKVEIKRTVAAPSVFIFPPSDEQLKSGTASVVCLLNNFYPREAKVQWKVDNALQSGNSQESVTEQDSKDSTYSLSSTLTLSKADYEKHKVYACEVTHQGLSSPVTKSFNRGEC
B3: 6B12, mouse monoclonal IgG1 anti-S100A4 antibody (antibody, V domains shown)
VH: DVQLQESGPGLVKPSQSLSLTCSVTGDSFTNDYYWNWIRQFPGSKLEWMGHIGYGGNINYNPSLKNRISITRDTSKNQFFLRLTSVTTEDTATYYCTRESFYDGYPFDYWGQGTLVTVSA
VL: DIQMTQTTSSLSASLGDRVTISCRASQDIRNYLNWYQQRPGGTLKLLIYYTSRLHSGVPSRFSGSGSGTDYSLTISNLEQEDIATYFCQQGNSLPRTFGGGTKLEIK
notes: Mouse IgG1; also called 6B12 mIgG1; 6B12 IgG1
B4: VH1_H40Phe VL3 (antibody, V domains shown)
VH: B1 VH
VL: B1 VL with L44P
notes: Humanized antibody; also called VH1_40Phe:VL3; Phe40
B5: VH1 VL3_L44Leu (antibody, V domains shown)
VH: B1 VH with F41H
VL: B1 VL
notes: Humanized antibody; also called VH1:VL3_Leu44; Leu44
B6: VH1 VL3 (antibody, V domains shown)
VH: B1 VH with F41H
VL: B1 VL with L44P
notes: Humanized antibody
B7: VH1_H43Ser VL3_L44Leu (antibody, V domains shown)
VH: B1 VH with F41H, K44S
VL: B1 VL
B8: VH1_H44Lys VL3 (antibody, V domains shown)
VH: B1 VH with F41H, G45K
VL: B1 VL with L44P
B9: VH1 VL3_L43Thr (antibody, V domains shown)
VH: B1 VH with F41H
VL: B1 VL with A43T, L44P
B10: VH1_H40Phe + H44Lys VL3 (antibody, V domains shown)
VH: B1 VH with G45K
VL: B1 VL with L44P
B11: VH1 VL3_L42Gly+L44Leu (antibody, V domains shown)
VH: B1 VH with F41H
VL: B1 VL with K42G
B12: VH1_H43Ser + H44Lys VL3 (antibody, V domains shown)
VH: B1 VH with F41H, K44S, G45K
VL: B1 VL with L44P
B13: VH1_H43Ser VL3 (antibody, V domains shown)
VH: B1 VH with F41H, K44S
VL: B1 VL with L44P
B14: VH1_H43Ser + H44Lys VL3_L44Leu (antibody, V domains shown)
VH: B1 VH with F41H, K44S, G45K
VL: B1 VL
B15: VH1 VL3_L42Gly (antibody, V domains shown)
VH: B1 VH with F41H
VL: B1 VL with K42G, L44P
B16: VH0 VL0: the VH and VL regions of 6B12 comprised in a humanized IgG4 isotype framework (antibody, V domains shown)
VH: B3 VH
VL: B3 VL
B17: VH1 VL0 (antibody, V domains shown)
VH: B1 VH with F41H
VL: B3 VL
B18: VH0 VL3 (antibody, V domains shown)
VH: B3 VH
VL: B1 VL with L44P

These binders were tested against T3, human S100A4 protein (human, UniProt P26447 1-101) (assay: Western blot).
T3 construct: also called S100A4 (human)
T3 sequence (P26447 whole entry, one chain of several): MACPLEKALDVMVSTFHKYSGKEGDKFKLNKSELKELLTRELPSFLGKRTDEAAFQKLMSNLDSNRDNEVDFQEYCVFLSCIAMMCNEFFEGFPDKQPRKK

Row | binding result | Binder
1 | binds | B1

The binders below were run against T1, human FcγRIIa-H (the high-affinity H131 …) (assay: cell-based or functional assay).

Row | FcγRIIa-H ADCP reporter; potency to induce FcγR activation against the same antibody with a human IgG1 scaffold [fold lower] | FcγRIIa-H ADCP reporter; fold higher activation than AX-202 hIgG4, immune complex with S100A4 dimer [fold] | FcγRIIa-H ADCP reporter; fold higher activation than AX-202 hIgG4, immune complex with S100A4 multimer [fold] | Binder
2 | ~3 | – | – | B2
3 | – | 3.23 | 2.87 | B3

The binders below were run against A6 (lane under "Human S100 Proteins") (Homo sapiens, UniProt P06703) (assay: Western blot on human S100 proteins).

Row | binding result | Binder
4 | no binding | B1
5 | no binding | B4
6 | no binding | B5

Target: T2, A8 (lane under "Human S100 Proteins")
Experiment: Western blot on human S100 proteins

Row | binding result | Binder
7 | no binding | B1
8 | no binding | B4
9 | no binding | B5

The binders below were run against T4, human S100A4 dimer (Homo sapiens, UniProt P26447 1-101) (assay: SPR, Biacore T200, 25 C; S100A4 captured via anti-His, antibody as analyte (0.78-200 nM), 1:1 fit).
T4 construct: In the SPR it was captured on an anti-His surface, so it carried a His tag; also called recombinant human S100A4 dimer
Description: Quantitative, kinetic analysis of the interactions between 14 humanized antibodies and 2 control antibodies with the human S100A4 dimer were performed using surface plasmon resonance (SPR).
The analysis was performed using a Biacore T200 instrument, at 25° C. analysis temperature, at a flow rate of 50 μl/min for quantitative kinetic interaction analyses.

T4 sequence (P26447 whole entry, one chain of several): as above

Row | Kd [nM] | koff [s⁻¹] | kon [M⁻¹ s⁻¹] | Binder
10 | 3.47 | 0.000674 | 194000 | B6
11 | 2.38 | 0.000512 | 215000 | B7
12 | 2.65 | 0.000576 | 217000 | B4
13 | 2.77 | 0.000592 | 213000 | B8
14 | 4.72 | 0.000882 | 187000 | B9
15 | 2.43 | 0.00056 | 231000 | B10
16 | 1.99 | 0.000523 | 263000 | B11
17 | 2.84 | 0.000596 | 210000 | B12
18 | 2.25 | 0.000537 | 239000 | B5
19 | 3.21 | 0.000679 | 211000 | B13
20 | 2.15 | 0.000507 | 236000 | B14
21 | 3 | 0.00064 | 213000 | B15
22 | 1.65 | 0.000206 | 124000 | B3
23 | 0.958 | 0.000219 | 229000 | B16
24 | 1.15 | 0.000361 | 313000 | B17
25 | 1.46 | 0.000279 | 191000 | B18
